Test results: patent US20030199671A1, “Binding molecules for Fc-region polypeptides” (priority 2001, published 2003)
Starred links: 1 amine or outer side, 2 acyl side, 3 side chain; linkers in the order of their positions; H or OH if unused. Primed or numbered codes have the meaning given here. code X″ = C-terminal linker unit, -NH-(CH2CH2O)2-CH2CH2- (X-NH2 = -NH-(CH2CH2O)2-CH2CH2-NH2), C(COCCOCC[*:2])N[*:1]; Su = not defined here

Tests used:
[1] = target: human IgG (unfractionated, polyclonal); experiment: filterplate; 25 mg human IgG applied per ml resin
[2] = target: human IgG (unfractionated, polyclonal); experiment: total dynamic capacity

Binder	Static Cap. [1]	Dynamic Cap. [2]
Ac-GDDHMCVYTTWGELIWCDNHEPG-{code X″-Su-code X″-NH2} (not fully specified (bridges); printed as Ac-GDDHMCVYTTWGELIWCDNHEPG-X-Su-X-NH2; cysteine pairing not given here; reading uncertain) [DX878]	23 mg/mL	9 mg/mL
Ac-GDDHMCVYTTWGELIWCDNHEPGPEG-{NH‑(CH2CH2O)2‑CH2CH2‑NH2} (not fully specified (bridges); printed as Ac-GDDHMCVYTTWGELIWCDNHEPGPEG-X-NH2; cysteine pairing not given here) [DX877]	20 mg/mL	8 mg/mL
